Data published in patent publication US20190352623A1.

Target: HaloTag-NLpep86 fusion proteins (internal fusions)
Assay: luminescence complementation in transfected HeLa cells

efficiency of structural complementation relative to N- or C-terminal NLpep86 fusions to HaloTag: 1 to 40%
Substance: NLpoly11S
